In article PMC5677083, “Characterization of ApoJ-reconstituted high-density lipoprotein (rHDL) nanodisc for the potential treatment of cerebral β-amyloidosis” (Scientific Reports, 2017):

Molecular target: the molecule itself
Experiment: SEC; purified rApoJ on a size exclusion column; wide peak at 12-16 ml and a homogeneous peak at 16-18 ml (maximum 16.5 ml) of the elution volume; column and buffer are in the Supplementary Information

B1: recombinant human ApoJ (rApoJ), free (non-lipidated) (natural protein)
chain 1: DQTVSDNELQEMSNQGSKYVNKEIQNAVNGVKQIKTLIEKTNEERKTLLSNLEEAKKKKEDALNETRESETKLKELPGVCNETMMALWEECKPCLKQTCMKFYARVCRSGSGLVGRQLEEFLNQSSPFYFWMNGDRIDSLLENDRQQTHMLDVMQDHFSRASSIIDELFQDRFFTREPQDTYHYLPFSLPHRRPHFFFPKSRIVR
chain 2: SLMPFSPYEPLNFHAMFQPFLEMIHEAQQAMDIHFHSPAFQHPPTEFIREGDDDRTVCREIRHNSTGCLRMKDQCDKCREILSVDCSTNNPSQAKLRRELDESLQVAERLTRKYNELLKSYQWKMLNTSSLLEQLNEQFNWVSRLANLTQGEDQYYLRVTTVASHTSDSDVPSGVTEVVVKLFDSDPITVTVPVEVSRKNPKFMETVAEKALQEYRKKHREE
notes: apolipoprotein J (clusterin), human, beta chain: cut product of the precursor, disulfide-bonded to the alpha chain; apolipoprotein J (clusterin), human, alpha chain: cut product of the precursor, disulfide-bonded to the beta chain; Heterodimer of alpha and beta chains (about 40 kDa each, about 77 kDa non-reduced); They are written on the alpha chain on the surmise that they sit at the C-terminus …
Does B1 bind?
Result: binds
